# Reference: US7815907B2, “Antibodies to insulin-like growth factor I receptor” (Amgen Fremont Inc., priority 2001, dated 2010)
# B1: 4.17.3: human IgG2κ monoclonal antibody specific for IGF-IR from hybridoma 4.17.3 (ATCC PTA-2793); named as activating antibody (antibody, V domains shown)
# VH: PGLVKPSETLSLTCTVSGGSISSYYWSWIRQPPGKGLEWIGYIYYSGSTNYNPSLKSRVTISVDTSKNQFSLKLSSVTAADTAVYYCARTYSSSFYYYGMDVWGQGTTVTVSS
# VL: GDRVTITCRASQSISTFLNWYQQKPGKAPKLLIHVASSLQGGVPSRFSGSGSGTDFTLTISSLQPEDFATYYCQQSYNAPLTFGGGTKVEIK
# B2: 2.12.1: human IgG2κ monoclonal antibody specific for IGF-IR from hybridoma 2.12.1 (ATCC PTA-2792) (antibody)
# heavy: QAQLVESGGGLVKPGGSLRLSCAASGFTFSDYYMSWIRQAPGKGLEWVSYISSSGSTRDYADSVKGRFTISRDNAKNSLYLQMNSLRAEDTAVYYCVRDGVETTFYYYYYGMDVWGQGTTVTVSSASTKGPSVFPLAPCSRSTSESTAALGCLVKDYFPEPVTVSWNSGALTSGVHTFPAVLQSSGLYSLSSVVTVPSSNFGTQTYTCNVDHKPSNTKVDKTVERKCCVECPPCPAPPVAGPSVFLFPPKPKDTLMISRTPEVTCVVVDVSHEDPEVQFNWYVDGVEVHNAKTKPREEQFNSTFRVVSVLTVVHQDWLNGKEYKCKVSNKGLPAPIEKTISKTKGQPREPQVYTLPPSREEMTKNQVSLTCLVKGFYPSDIAVEWESNGQPENNYKTTPPMLDSDGSFFLYSKLTVDKSRWQQGNVFSCSVMHEALHNHYTQKSLSLSPGK
# light: DIQMTQSPSSLSASVGDRVTFTCRASQDIRRDLGWYQQKPGKAPKRLIYAASRLQSGVPSRFSGSGSGTEFTLTISSLQPEDFATYYCLQHNNYPRTFGQGTEVEIIRTVAAPSVFIFPPSDEQLKSGTASVVCLLNNFYPREAKVQWKVDNALQSGNSQESVTEQDSKDSTYSLSSTLTLSKADYEKHKVYACEVTHQGLSSPVTKSFNRGEC
# B3: 2.14.3: human IgG2κ monoclonal antibody specific for IGF-IR from hybridoma 2.14.3 (ATCC PTA-2790) (antibody, V domains shown)
# VH: GPGLVKPSETLSLTCTVSGGSISNYYWSWIRQPAGKGLEWIGRIYTSGSPNYNPSLKSRVTMSVDTSKNQFSLKLNSVTAADTAVYYCAVTIFGVVIIFDYWGQGTLVTVSS
# VL: SSLSASVGDRVTFTCRASQDIRRDLGWYQQKPGKAPKRLIYAASRLQSGVPSRFSGSGSGTEFTLTISSLQPEDFATYYCLQHNNYPRTFGQGTEVEIIR
# Experiments:
# IGF-IR [1] = target: T1, IGF-IR (Homo sapiens, UniProt P08069); assay: IGF-IR levels in 3T3/IGF-IR tumors by western blot after antibody and/or adriamycin; assay type: in vivo, nude mice; parameters: expressed in transfected cells; host or cells: NIH-3T3 (mouse fibroblasts); conditions: 72 hours after single 250 μg 2.13.2 i.p. or 7.5 mg/kg adriamycin i.v.
# Description: Tumors were induced in nude mice as described in Example IX. Mice with established subcutaneous tumors of approximately 400 mm^3 were treated with a single injection of 250 μg 2.13.2 antibody (i.p.) or with 7.5 mg/kg adriamycin (i.v.), either as single agents or in combination, as described in Example IX. 72 hours after administration of the agents, tumors were extracted as described in Example VIII, and equal amounts of the tumor extracts were subjected to sodium […] polyacrylamide gel electrophoresis (SDS PAGE) and western blot analysis using the anti-IGF-IR antibody SC-713 (Santa Cruz). […] Each lane represents equal amounts of protein from individual tumors from individual mice.
# [2] = target: T2, extracellular domain of IGF-IR (Homo sapiens, UniProt P08069); assay: BIAcore affinity measurement, Protocol 1; assay type: binding; conditions: BIAcore 3000; antibody captured on protein-A, IGF-IR extracellular domain injected
# T2 construct: Different concentrations of the extracellular domain of IGF-IR were injected on the sensorchip
# Description: We performed affinity measures of purified antibodies by surface plasmon resonance using the BIAcore 3000 instrument, following the manufacturer's protocols.
# To perform kinetic analyses, protein-A was immobilized on the sensorchip surfaces of the BIAcore. The sensorchip was then used to capture the anti-IGF-IR antibodies of the present invention. Different concentrations of the extracellular domain of IGF-IR were injected on the sensorchip and the binding and dissociation kinetics of the interactions between the anti-IGF-IR antibodies and the extracellular domain of IGF-IR were analyzed. The data were evaluated with global fit Langmuir 1:1, using baseline drift models available on the BIAevaluation software provided by BIAcore.
# guinea pig IGF-IR = assay: Species crossreactivity by immunoprecipitation/Western blot; assay type: binding; conditions: immunoprecipitation, antibody 1 μg/ml
# Description: (§1) To perform immunoprecipitation experiments, we plated cells in DMEM high glucose media supplemented with L-glutamine (0.29 mg/ml), 10% heat-inactivated FBS, and 500 μg/ml each of geneticin, penicillin and streptomycin to 50% confluence in T25 flasks. We then added 100 μl of an antibody of the invention in Hank's buffered saline solution (HBSS; Gibco BRL) at a concentration of 1 μg/ml. We incubated the plates for 30 minutes at 37° C. in an incubator and then stimulated the cells with IGF-I at 100 ng/ml for 10 minutes at room temperature. We lysed the cells in RIPA buffer (Harlow and Lane, supra) and immunoprecipitated IGF-IR with 2 μg of pan-specific SC-713 anti-IGF-IR antibody (Santa Cruz) plus protein A agarose beads for 1 hour at 4° C. We pelleted the beads and wash three times with PBS/T (PBS+0.1% Tween-20) and then boiled the beads in 40 μl Laemmli buffer containing 5% βME.
# (§2) The samples prepared as described above were then analyzed by Western blot. We loaded 12 μl of each sample per lane on 4-10% gradient Novex™ gels run with 1×MES buffer (Novex™). Gels were run at 150V for 1 hour or at 200V for approximately 30 minutes. We then transferred the gel to a membrane in Novex™ transfer buffer with 10% methanol either overnight at 100 mA or for 1-1.5 hours at 250 mA. We then allowed the membrane to dry completely and blocked at room temperature with TBS (Tris-buffered saline pH 8.0) containing Superblock (Pierce Chemical Co.). We added the IGF-IR blotting antibody SC713 (Santa Cruz) to detect immunoprecipitated IGF-IR.
# canine IGF-IR = assay: as above; assay type: binding; conditions: immunoprecipitation, antibody 1 μg/ml
# Description: as §1, §2
# rabbit IGF-IR = assay: as above; assay type: binding; conditions: immunoprecipitation, antibody 1 μg/ml
# Description: as §1, §2
# IGF-IR from the marmoset = assay: as above; assay type: binding; conditions: immunoprecipitation, antibody 1 μg/ml
# Description: as §1, §2
# Rhesus IGF-IR = assay: as above; assay type: binding; conditions: immunoprecipitation, antibody 1 μg/ml
# Description: as §1, §2
# COS7 IGF-IR = assay: as above; assay type: binding, old world monkey; conditions: immunoprecipitation, antibody 1 μg/ml
# Description: as §1
# (§3) The samples prepared as described above were then analyzed by Western blot. We loaded 12 μl of each sample per lane on 4-10% gradient Novex™ gels run with 1×MES buffer (Novex™). Gels were run at 150V for 1 hour or at 200V for approximately 30 minutes. We then transferred the gel to a membrane in Novex™ transfer buffer with 10% methanol either overnight at 100 mA or for 1-1.5 hours at 250 mA. […]
# IGF-IR [3] = target: T1, IGF-IR; assay: as above; assay type: binding; parameters: on cells from a variety of animals; endogenous in cells; conditions: immunoprecipitation, antibody 1 μg/ml
# Description: as §1, §3
# [4] = target: T3, extracellular domain (ECD) of IGF-IR (Homo sapiens, UniProt P08069); assay: BIAcore competition (epitope mapping); assay type: binding; conditions: first antibody bound under saturating conditions
# T3 construct: Different concentrations of the extracellular domain of IGF-IR were injected on the sensorchip
# From the text: We conducted BIAcore competition studies to determine whether the antibodies of this invention bind to the same or distinct site on the IGF-IR molecule. We bound the extracellular domain (ECD) of IGF-IR to a BIAcore sensorchip as described above in Example II. We bound a first antibody of the invention to this sensorchip-bound IGF-IR under saturating conditions. We then measured the ability of subsequent secondary antibodies of the invention to compete with the primary antibody for binding to IGF-IR.
molecule,measurement,setting,value
"COc1cccc2c1C(=O)c1c(O)c3c(c(O)c1C2=O)C[C@@](O)(C(=O)CO)C[C@@H]3O[C@H]1C[C@H](N)[C@H](O)[C@H](C)O1 [adriamycin, reference compound]","IGF-IR levels in tumors, single agent",IGF-IR [1],little effect on IGF-IR levels
B1,Kd,[2],13 nM
B2,binding to guinea pig IGF-IR,guinea pig IGF-IR,not
same,binding to canine IGF-IR,canine IGF-IR,not
same,binding to rabbit IGF-IR,rabbit IGF-IR,not
same,binding to marmoset IGF-IR,IGF-IR from the marmoset,not
same,binding to Rhesus IGF-IR,Rhesus IGF-IR,able to bind
same,binding to COS7 IGF-IR,COS7 IGF-IR,able to bind
same,Kd,[2],7.37 nM
same,binding to human IGF-IR,IGF-IR [3],able to bind
B3,Kd,[2],0.641 nM
same,binding site on IGF-IR (competition between antibodies),[4],bind to sites on IGF-IR that are different
